Results published in patent publication US20110172168A1 (MEDIGENE, published 2011).
Where a chain is given by its changes, count along the chain named. Several values for one entry are separate records, joined by “and”; a condition that tells them apart may be missing. Identical values can stand only once. Each block holds one binder with its values, some of them ahead of it.

Experiments:
[1] = target: T1, CEA-derived … (SEQ ID NO: 71)-HLA-A*0201 complex (biotin on the C-terminal biotinylation tag (enzymatic, BirA)); test: Biacore SPR, pMHC immobilised
T1 construct: also called soluble biotinylated HLA-A2-peptide complex; not shown: C-terminal biotinylation tag that replaces the transmembrane and cytoplasmic domains
Method: SPR measures changes in refractive index expressed in response units (RU) near a sensor surface within a small flow cell, a principle that can be used to detect receptor ligand interactions and to analyse their affinity and kinetic parameters. The probe flow cells were prepared by immobilising the pMHC complexes in flow cells via biotin-tag binding. The assay was then performed by passing soluble ILT over the surfaces of the different flow cells at a constant flow rate, measuring the SPR response in doing so.

[2] = target: Class I pMHC on Mel 624 target cells; test: cell-based or functional assay

Kd [1]: ≤ 1000 nM
koff [1]: ≤ 2 s⁻¹
B2: SEQ ID NO 6 (receptor)
chain: MHLPKPTLWAEPGSVITLQSPVTLRCQGGQETQQYRLYREKKTAPWITRIPQELVKKGQFPIPSITWEHAGRYRCYYGSDTRQWSASSDPLELVVTGVYIKPTLSAQPSPVVNSGGNVTLQCDSQVAFDGFILCKEGEDDHPQCLNSQPHARGSSRAIFSVGPVSPSRRWRYRCYAYDSNSPYEWSLPSDLLELDVDG

Kd [1]: ≤ 1000 nM
koff [1]: ≤ 2 s⁻¹
B3: SEQ ID NO 49 (receptor)
chain: B2 chain with V22L, D178M, N180W

Kd [1]: ≤ 1000 nM
koff [1]: ≤ 2 s⁻¹
B5: SEQ ID NO 50 (receptor)
chain: B2 chain with V22L, D178M, N180W, S181A

Kd [1]: ≤ 1000 nM
koff [1]: ≤ 2 s⁻¹
B7: SEQ ID NO 25 (receptor)
chain: B2 chain with D178V, S179A, N180W, S181A

Kd [1]: ≤ 1000 nM
koff [1]: ≤ 2 s⁻¹
B8: SEQ ID NO 42 (receptor)
chain: B2 chain with V22L

Kd [1]: ≤ 1000 nM
koff [1]: ≤ 2 s⁻¹
B9: SEQ ID NO 26 (receptor)
chain: B2 chain with D178M, S179N, N180W, S181A

Kd [1]: ≤ 1000 nM
koff [1]: ≤ 2 s⁻¹
B11: SEQ ID NO 60 (receptor)
chain: MGHLPKPTLWAEPGSVITMDQPVTLRCQGGQETQQYRLYREKKTAPWITRIPQELVKKGQFPIPSITWEHAGRYRCYYGSDTRQWSASSDPLELVVTGVYIKPTLSAQPSPVVNSGGNVTLQCDSQVAFDGFILCKEGEDDHPQCLNSQPHARGSSRAIFSVGPVSPSRRWRYRCYAYDSNSPYEWTRGSDLLELDVDG

Kd [1]: ≤ 1000 nM
koff [1]: ≤ 2 s⁻¹
B13: SEQ ID NO 22 (receptor)
chain: MAGHLPKPTLWAEPGSVITMDQPVTLRCQGGQETQEYRLYREKKTAPWITRIPQELVKKGQFPIPSITWEHAGRYRCYYGSDTSQWSASSDPLELVVTGVYIKPTLSAQPSPVVNSGGNVTLQCDSQVAFDGFILCKEGEDEHPQCLNSQPHARGSSRAIFSVGPVSPSRRWWYRCYAYGRWLPYEWSLPSDLLELDVD

Kd [1]: ≤ 1000 nM
koff [1]: ≤ 2 s⁻¹
B15: SEQ ID NO 66 (receptor)
chain: MGHLPKPTLWAEPGSVITMDQPVTLRCQGGQETQEYRLYREKKTAPWITRIPQELVKKGQFPIPSITWEHAGRYRCYYGSDTSQWSASSDPLELVVTGVYIKPTLSAQPSPVVNSGGNVTLQCDSPFLSDGFILCKEGEDEHPQCLNSQPHARGSSRAIFSVGPVSPSRKWWYRCYAYMSWSPYEWSLPSDLLELDVDG

The next lines start with the binder.

B1: SEQ ID NO 29 (receptor)
chain: B2 chain with D178M, N180W
Kd [1]: ≤ 1000 nM
koff [1]: ≤ 2 s⁻¹

B4: SEQ ID NO 28 (receptor)
chain: B2 chain with D178M, N180W, S181A
Kd [1]: ≤ 1000 nM
koff [1]: ≤ 2 s⁻¹

B6: SEQ ID NO 24 (receptor)
chain: B2 chain with D178P, S179I, N180W, S181T
Kd [1]: ≤ 1000 nM
koff [1]: ≤ 2 s⁻¹

B10: SEQ ID NO 27 (receptor)
chain: B2 chain with D178P, S179A, N180W, S181T
Kd [1]: ≤ 1000 nM
koff [1]: ≤ 2 s⁻¹

B12: soluble high affinity c83 (SEQ ID NO: 19) ILT-like polypeptide (receptor)
chain: MAGHLPKPTLWAEPGSVITMDQPVTLRCQGGQETQEYRLYREKKTAPWITRIPQELVKKGQFPIPSITWEHAGRYRCYYGSDTSQWSASSDPLELVVTGVYIKPTLSAQPSPVVNSGGNVTLQCDSQVAFDGFILCKEGEDEHPQCLNSQPHARGSSRAIFSVGPVSPSRRWWYRCYAYMSWSPYEWSLPSDLLELDVDG
notes: also called clone 83 (c83) ILT-2 polypeptide
Kd [1]: ≤ 1000 nM
koff [1]: ≤ 2 s⁻¹
Average IC50, inhibition of CTL activation (IFN-γ ELISPOT) [2]: 96 nM
IC50, inhibition of CTL activation (IFN-γ ELISPOT, Mel 624 target cells, MART-1 specific T cell clone KA/C5) [2]: 76 nM and 94 nM and 117 nM

B14: SEQ ID NO 65 (receptor)
chain: B15 chain with L128I, S129A, D130E, K170R
Kd [1]: ≤ 1000 nM
koff [1]: ≤ 2 s⁻¹

B16: SEQ ID NO 67 (receptor)
chain: B15 chain with L128V, K170R
Kd [1]: ≤ 1000 nM
koff [1]: ≤ 2 s⁻¹

B17: SEQ ID NO 69 (receptor)
chain: B15 chain with P126M, S129V, K170R
Kd [1]: ≤ 1000 nM
koff [1]: ≤ 2 s⁻¹
